Reference: patent US6355473
Each block holds one molecule with its values, some of them ahead of it.

Tests used:
Test in all cases: cell-based or functional assay
[1] = molecular target: human melanocortin receptor 4 (hMCR4), native form (human) (UniProt P32245)
[2] = molecular target: All the receptor forms tested (hNocR, Ste2-hNocR, Inv-hNocR, αF-hNocR) in the stp22 strains
[3] = molecular target: αF-hSSTR3 (yeast; human)
αF-hSSTR3 (yeast; human), sequence (P01149 other isoform, or with tags, fused parts or gaps): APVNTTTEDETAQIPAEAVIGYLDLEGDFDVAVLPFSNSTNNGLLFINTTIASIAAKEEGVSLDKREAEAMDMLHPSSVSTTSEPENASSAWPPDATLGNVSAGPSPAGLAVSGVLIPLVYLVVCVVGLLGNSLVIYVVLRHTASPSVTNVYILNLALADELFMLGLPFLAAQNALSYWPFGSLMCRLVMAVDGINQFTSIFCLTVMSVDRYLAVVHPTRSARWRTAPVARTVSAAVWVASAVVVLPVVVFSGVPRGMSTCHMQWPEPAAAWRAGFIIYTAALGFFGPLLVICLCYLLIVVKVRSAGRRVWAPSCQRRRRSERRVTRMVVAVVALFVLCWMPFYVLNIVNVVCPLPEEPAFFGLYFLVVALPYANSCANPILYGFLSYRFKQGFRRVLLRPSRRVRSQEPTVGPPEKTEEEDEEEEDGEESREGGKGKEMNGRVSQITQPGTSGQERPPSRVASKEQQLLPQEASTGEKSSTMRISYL

UniProt P32245, sequence (P32245 whole entry): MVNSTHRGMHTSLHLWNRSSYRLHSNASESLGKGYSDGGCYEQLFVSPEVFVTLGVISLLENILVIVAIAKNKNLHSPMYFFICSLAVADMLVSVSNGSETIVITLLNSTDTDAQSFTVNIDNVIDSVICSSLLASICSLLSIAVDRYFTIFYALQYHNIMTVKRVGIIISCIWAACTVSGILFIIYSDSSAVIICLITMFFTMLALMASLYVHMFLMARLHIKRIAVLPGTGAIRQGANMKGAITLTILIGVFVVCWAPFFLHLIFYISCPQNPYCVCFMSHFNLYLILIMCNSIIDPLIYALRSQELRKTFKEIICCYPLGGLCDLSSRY

Specific ligand-induced levels of β-galactosidase activity (FUS1-lacZ), stp22 strain compared with wild type [1]: 2 fold
Molecule: NDP-α-MSH (peptide)

maximal increase in the levels of β-galactosidase activity (FUS1-lacZ induction), stp22 strains [2]: 10 to 40 fold
Molecule: FGGFTGARKSARKLANQ (peptide, UniProt Q13519 130-146, looked up) [nociceptin]

decrease of EC50 of FUS1-lacZ induction, stp22 strain compared with wild type [3]: 50%
levels of FUS1-lacZ induction (β-galactosidase activity), stp22 strain compared with wild type [3]: 2 fold
Molecule: AGCKNFFWKTFTSC (peptide, UniProt P61278 103-116, looked up) [Somatostatin-14]
